From PMC5910394, “Mechanically interlocked functionalization of monoclonal antibodies” (Nature Communications, 2018)
Positions of bridges follow the written chain, without caps; N, C: chain ends. Non-standard residues stand in square brackets, D forms with d. Groups on a side chain read outwards from the residue. No end group written: not given here. *: point of attachment. Dip = N[C@H](C(=O)O)C(c1ccccc1)c1ccccc1; azide = [N-]=[N+]=N*

Assays:
[1] = target: Ile83Glu memAb anti-HER2 IgG; assay: SPR; Ile83Glu memAb anti-HER2 IgG immobilized on the sensor chip, 37 °C, n=1, analyte as a two-fold dilution series from 500 pM to 39 pM, 1:1 interaction model
Ile83Glu memAb anti-HER2 IgG, sequence (heavy, as listed by the source, chain 1 of 2): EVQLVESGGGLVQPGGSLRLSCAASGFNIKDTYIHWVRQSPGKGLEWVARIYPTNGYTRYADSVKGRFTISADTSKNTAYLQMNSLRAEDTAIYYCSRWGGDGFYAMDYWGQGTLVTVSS
Ile83Glu memAb anti-HER2 IgG, sequence (light, as listed by the source, chain 2 of 2): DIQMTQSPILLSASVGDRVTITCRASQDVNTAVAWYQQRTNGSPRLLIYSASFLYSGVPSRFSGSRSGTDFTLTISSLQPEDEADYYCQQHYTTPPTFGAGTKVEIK

[2] = target: Ile83Glu memAb anti-HER2 IgG; assay: SPR; Ile83Glu memAb anti-HER2 amine-coupled on a CM5 chip, meditope flowed over at 30 uL/min, HBS-EP+, 37 °C, 1:1 model, global fit, n=4, standard deviation
[3] = target: memAb anti-HER2 (meditope-enabled, trastuzumab-based anti-HER2 antibody); assay: SPR; memAb anti-HER2 amine-coupled on a CM5 chip, meditope flowed over at 30 uL/min, HBS-EP+, 25 °C, 1:1 model, global fit, n=1 (authors estimate the error at 10-50%)
memAb anti-HER2 (meditope-enabled, trastuzumab-based anti-HER2 antibody), sequence (heavy, as listed by the source, chain 1 of 2): as the sequence (heavy, as listed by the source, chain 1 of 2) above
memAb anti-HER2 (meditope-enabled, trastuzumab-based anti-HER2 antibody), sequence (light, as listed by the source, chain 2 of 2): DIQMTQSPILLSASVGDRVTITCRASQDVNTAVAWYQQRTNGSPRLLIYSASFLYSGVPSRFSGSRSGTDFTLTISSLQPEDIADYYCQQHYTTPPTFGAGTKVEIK

[4] = target: memAb anti-HER2 (meditope-enabled, trastuzumab-based anti-HER2 antibody); assay: SPR; memAb anti-HER2 amine-coupled on a CM5 chip, meditope flowed over at 30 uL/min, HBS-EP+, 37 °C, 1:1 model, global fit, n=1 (authors estimate the error at 10-50%)
[5] = target: Ile83Glu memAb anti-HER2 IgG; assay: SPR; Ile83Glu memAb anti-HER2 amine-coupled on a CM5 chip, meditope flowed over at 30 uL/min, HBS-EP+, 25 °C, 1:1 model, global fit, n=1 (authors estimate the error at 10-50%)
[6] = target: anti-HER2 memAb (trastuzumab-based, meditope-enabled anti-HER2 antibody); assay: SPR; memAb variant amine-coupled to a CM5 chip, peptide flowed over at 30 uL/min, HBS-EP+, 25 °C, Biacore T100, 1:1 binding model
anti-HER2 memAb (trastuzumab-based, meditope-enabled anti-HER2 antibody), sequence (heavy, as listed by the source, chain 1 of 2): as the sequence (heavy, as listed by the source, chain 1 of 2) above

[7] = target: anti-HER2 memAb (trastuzumab-based, meditope-enabled anti-HER2 antibody); assay: SPR; memAb variant amine-coupled to a CM5 chip, peptide flowed over at 30 uL/min, HBS-EP+, 37 °C, Biacore T100, 1:1 binding model
[8] = target: Ile83Glu anti-HER2 memAb; assay: SPR; memAb variant amine-coupled to a CM5 chip, peptide flowed over, HBS-EP+; temperature not told for this result (25 °C or 37 °C)
Ile83Glu anti-HER2 memAb, sequence (heavy, as listed by the source, chain 1 of 2): as above

[9] = target: Ile83Glu anti-HER2 memAb; assay: SPR; memAb variant amine-coupled to a CM5 chip, peptide flowed over at 30 uL/min, HBS-EP+, 25 °C, Biacore T100, 1:1 binding model
[10] = target: Ile83Glu anti-HER2 memAb; assay: SPR; memAb variant amine-coupled to a CM5 chip, peptide flowed over at 30 uL/min, HBS-EP+, 37 °C, Biacore T100, 1:1 binding model

Kd [2] [nM]	koff [2] [s⁻¹]	kon [2] [M⁻¹ s⁻¹]	koff [3] [s⁻¹]	kon [3] [M⁻¹ s⁻¹]	koff [4] [s⁻¹]	kon [4] [M⁻¹ s⁻¹]	koff [5] [s⁻¹]	kon [5] [M⁻¹ s⁻¹]	Binder	further results
									Ac-CQFD[Dip]STR([(PEG)2-azide])RLRCGGSK (disulfide 1-12 (inferred); also: arginine-(PEG)2-azide at position 8 by name (footnote: 9th place)) [5-diphenylalanine-8-Arg-(PEG)2-azidomeditope]	koff [1]: 0.00014 s⁻¹; kon [1]: 66000 M⁻¹ s⁻¹
4	0.00063	160000	0.006	28000	0.026	75000	0.00031	710000	Ac-CQFDLSTRRLRCGGSK (disulfide 1-12 (inferred)) [long meditope (Ac)…]	Kd [3]: 210 nM; Kd [4]: 350 nM; Kd [5]: 0.44 nM
20	0.0025	260000	0.016	13000	0.044	44000	0.00059	26000	CQFDLSTRRLKC (disulfide 1-12) [original meditope …]	
									CQFDLSTRRLKC (disulfide 1-12 (inferred)) [original meditope (…)]	Kd [6]: 1200 nM; Kd [7]: 1000 nM; half-life [7]: 0.267 min; Kd [8]: 23 nM
									Ac-CQFD[Dip]STRRLRCGGSK (disulfide 1-12 (inferred)) [5-diphenylalanine long meditope ((Ac)CQFDA(Ph)2…)]	Kd [9]: < 0.026 nM; koff [9]: < 1e-05 s⁻¹; Kd [10]: 0.4 nM; half-life [10]: 40 min
